# Laboratory results published in paper PMC4498904, “Mutagenesis Study Reveals the Rim of Catalytic Entry Site of HDAC4 and -5 as the Major Binding Surface of SMRT Corepressor” (PLoS ONE, 2015).
# B1: KGC-HDAC4c (C-terminal portion of Kusabira Green protein fused with HDAC4c), wild type [human] / KGN-SRD3c (N-terminal portion of Kusabira Green protein fused with SRD3c) [human] (parent complex)
# chain 1: PRFTTGLVYDTLMLKHQCTCGSSSSHPEHAGRIQSIWSRLQETGLRGKCECIRGRKATLEELQTVHSEAHTLLYGTNPLNRQKLDSKKLLGSLASVFVRLPCGGVGVDSDTIWNEVHSAGAARLAVGCVVELVFKVATGELKNGFAVVRPPGHHAEESTPMGFCYFNSVAVAAKLLQQRLSVSKILIVDWDVHHGNGTQQAFYSDPSVLYMSLHRYDDGNFFPGSGAPDEVGTGPGVGFNVNMAFTGGLDPPMGDAEYLAAFRTVVMPIASEFAPDVVLVSSGFDAVEGHPTPLGGYNLSARCFGYLTKQLMGLAGGRIVLALEGGHDLTAICDASEACVSALLGNELDPLPEKVLQQRPNANAVRSMEKVMEIHSKYWRCLQRTTSTAGRSLIEAQTCENEEAET
# chain 2: EGGMSVTQCSKEDGRSSSGPPHETAAPKRTYDMMEGRVGRAISSASIEGLMGRAIPPERHSPHHLKEQHHIRGSITQGIPRSYVEAQEDYLRREAKLLKREGTPPPPPPSRDLTEAYKTQALGPLKLKPAHEGLVATVKEAGRSIHEIPREELRHTPELPLAPRPLKEGSITQGTPLKYDTGASTTGSKKHDVRSLIGSPGRTFPPVHPLDVMADARALERACY
# B2: KGC-HDAC5c (C-terminal portion of Kusabira Green protein fused with HDAC5c), wild type [human] / KGN-SRD3c (N-terminal portion of Kusabira Green protein fused with SRD3c) [human] (parent complex)
# chain 1: LFTTGVVYDTFMLKHQCMCGNTHVHPEHAGRIQSIWSRLQETGLLSKCERIRGRKATLDEIQTVHSEYHTLLYGTSPLNRQKLDSKKLLGPISQKMYAVLPCGGIGVDSDTVWNEMHSSSAVRMAVGCLLELAFKVAAGELKNGFAIIRPPGHHAEESTAMGFCFFNSVAITAKLLQQKLNVGKVLIVDWDIHHGNGTQQAFYNDPSVLYISLHRYDNGNFFPGSGAPEEVGGGPGVGYNVNVAWTGGVDPPIGDVEYLTAFRTVVMPIAHEFSPDVVLVSAGFDAVEGHLSPLGGYSVTARCFGHLTRQLMTLAGGRVVLALEGGHDLTAICDASEACVSALLSVELQPLDEAVLQQKPNINAVATLEKVIEIQSKHWSCVQKFAAGLGRSLREAQAGETEEAETVS
# chain 2: B1 chain 2
# Variants of: B1
# Assay: BiFC assay (fluorescence spectrophotometer); HEK293 cells; KGN-SRD3c (1 μg) and KGC-HDAC4c mutant (1 μg); 48 hours of transfection; whole cell lysates; parent: 8; read off a plot
row,response [RFU],Variant
1,~4.6,chain 1 G195R
2,~4.1,chain 1 F222L
3,~4.3,chain 1 H154Y

# Variants of: B2
# Assay: BiFC assay (fluorescence spectrophotometer); HEK293 cells; KGN-SRD3c (1 μg) and KGC-HDAC5c mutant (1 μg); 48 hours of transfection; whole cell lysates; parent: 9.3; read off a plot
row,response [RFU],Variant
1,~3.7,chain 1 N196D
2,~4.9,chain 1 H154R
3,~5.1,chain 1 D110G
4,~4.1,chain 1 G152E
5,~3.9,chain 1 F222L
6,~4.4,chain 1 C164R
7,~4.1,chain 1 G325V
8,~5.8,chain 1 F163S
9,~3.8,chain 1 P150L
10,~5,chain 1 G295C
11,~5.9,chain 1 P151S
12,~4,chain 1 G326C
13,~3.9,chain 1 S118P
14,~3.9,chain 1 G195C
15,~4,chain 1 G197D
16,~3.7,chain 1 G127E
17,~3.9,chain 1 G219W
